The results in this text go back to US20090209022A1 (AstraZeneca / MedImmune, published 2009).

This data set concerns the molecule itself. The experiment in a line: X-ray crystallography, partial model and electron density map.

B1: H. influenzae pyrH UMP kinase (HI-1065), SeMet labelled, expressed from pSM145 (enzyme)
chain: GQPIYKRILLKLSGEALQGEDGLGIDPAILDRMAVEIKELVEMGVEVSVVLGGGNLFRGAKLAKAGMNRVVGDHMGMLATVMNGLAMRDSLFRADVNAKLMSAFQLNGICDTYNWSEAIKMLREKRVVIFSAGTGNPFFTTDSTACLRGIEIEADVVLKATKVDGVYDCDPAKNPDAKLYKNLSYAEVIDKELKVMDLSAFTLARDHGMPIRVFNMGKPGALRQVVTGTEEGTTIC
modifications: all methionines substituted with seleno-methionine (SeMet) in the crystallised protein
notes: Homohexamer (trimer of dimers); The crystal asymmetric unit holds eight chains: one hexamer and one dimer that gives a hexamer by crystallographic symmetry; The crystal also holds GTP (modelled as GDP) and phosphate
Consider B1, for which the binding result is listed as “binds”.
